According to patent US20180155451A1 (published 2018):
Read-outs that look alike come from different tables or passages of the source.

What was measured:
Assay in all cases: SPR (Biacore), antibody captured on chip, FcγR extracellular domain as analyte, kinetic analysis
[1] = molecular target: T1, FcgRIa extracellular domain with C-terminal His tag (human, UniProt P12314 16-292)
T1 construct: extracellular domain; Expressed in FreeStyle293 cells; used as analyte in Biacore; also called FcγRIa; FcγRI; not shown: His tag attached to the C terminus
Experimental: (§1) Analysis of interaction between obj ective antibody and the FcγR was carried out using Biacore T100 (GE Healthcare), Biacore T200, Biacore A100, and Biacore 4000. HBS-EP+ (GE Healthcare) was used as the running buffer, and the measurement temperature was set to 25° C. Chips produced by immobilizing the antigen peptide by the amine coupling method to a Series S sensor Chip CM5 (GE Healthcare), chips produced by allowing preliminarily biotinylated antigen peptides to interact with and immobilize onto a Series S Sensor Chip SA (certified) (GE Healthcare), chips produced by immobilizing Protein L (ACTIGEN, BioVision) to Series S Sencor Chip CM5 (GE Healthcare), or chips produced by immobilizing Protein A/G (Thermo Scientific) to Series S Sencor Chip CM5 (GE Healthcare) were used. Antibodies of interest were captured onto these chips, and allowed to interact to each FcγR diluted with running buffer. To regenerate and repeatedly use the chip, the antibodies captured onto the chip were washed off by reacting 10 mM glycine-HCl, pH 1.5.

[2] = molecular target: T2, FcgRIIa R extracellular domain with C-terminal His tag (human, UniProt P12318 34-217)
T2 construct: extracellular domain; also called FcγRIIa R; FcγRIIa type R; not shown: His tag attached to the C terminus
T2 sequence (looked up): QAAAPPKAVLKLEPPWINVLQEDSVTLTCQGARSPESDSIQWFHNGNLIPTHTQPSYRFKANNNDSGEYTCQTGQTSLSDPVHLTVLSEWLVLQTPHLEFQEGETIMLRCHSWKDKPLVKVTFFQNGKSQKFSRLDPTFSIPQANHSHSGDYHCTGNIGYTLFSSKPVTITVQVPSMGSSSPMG
Experimental: as §1

[3] = molecular target: T3, FcgRIIa H extracellular domain with C-terminal His tag (human, UniProt P12318 34-217)
T3 construct: extracellular domain; also called FcγRIIa H; FcγRIIa type H; not shown: His tag attached to the C terminus
T3 sequence (looked up): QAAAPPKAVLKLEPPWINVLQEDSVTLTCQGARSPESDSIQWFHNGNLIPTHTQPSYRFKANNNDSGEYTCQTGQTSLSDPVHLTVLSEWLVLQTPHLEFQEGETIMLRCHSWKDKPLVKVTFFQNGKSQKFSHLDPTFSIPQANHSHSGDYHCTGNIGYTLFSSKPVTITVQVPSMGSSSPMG
Experimental: as §1

[4] = molecular target: T4, FcgRIIb extracellular domain with C-terminal His tag (human, UniProt P31994 43-217)
T4 construct: extracellular domain; also called FcγRIIb; not shown: His tag attached to the C terminus
T4 sequence (looked up): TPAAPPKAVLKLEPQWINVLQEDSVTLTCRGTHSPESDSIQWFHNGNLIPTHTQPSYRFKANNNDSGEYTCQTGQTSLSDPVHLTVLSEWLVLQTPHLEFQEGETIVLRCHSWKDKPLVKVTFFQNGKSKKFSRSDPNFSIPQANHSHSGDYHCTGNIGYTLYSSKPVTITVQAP
Experimental: as §1

[5] = molecular target: T5, FcgRIIIa F extracellular domain with C-terminal His tag (human, UniProt P08637 17-208)
T5 construct: extracellular domain; also called FcγRIIIa F; FcγRIIIa (F158); not shown: His tag attached to the C terminus
Experimental: as §1

[6] = molecular target: T6, FcgRIIIa V extracellular domain with C-terminal His tag (human, UniProt P08637 17-208)
T6 construct: extracellular domain; also called FcγRIIIa V; FcγRIIIa (V158); not shown: His tag attached to the C terminus
Experimental: as §1

[7] = molecular target: T5, FcgRIIIa F extracellular domain with …; remark: listed apart in the source
Experimental: as §1

[8] = molecular target: T6, FcgRIIIa V extracellular domain with …; remark: listed apart in the source
Experimental: as §1

T5 sequence (P08637 17-208): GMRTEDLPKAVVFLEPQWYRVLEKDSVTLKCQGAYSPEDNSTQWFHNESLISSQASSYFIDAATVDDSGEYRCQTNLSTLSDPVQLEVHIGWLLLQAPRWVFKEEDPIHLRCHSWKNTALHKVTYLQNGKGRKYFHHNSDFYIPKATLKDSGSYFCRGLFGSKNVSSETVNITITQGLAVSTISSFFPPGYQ
T6 sequence (P08637 17-208 F176V): as the sequence (P08637 17-208) above, with F160V counted along it
T1 sequence (P12314 16-292): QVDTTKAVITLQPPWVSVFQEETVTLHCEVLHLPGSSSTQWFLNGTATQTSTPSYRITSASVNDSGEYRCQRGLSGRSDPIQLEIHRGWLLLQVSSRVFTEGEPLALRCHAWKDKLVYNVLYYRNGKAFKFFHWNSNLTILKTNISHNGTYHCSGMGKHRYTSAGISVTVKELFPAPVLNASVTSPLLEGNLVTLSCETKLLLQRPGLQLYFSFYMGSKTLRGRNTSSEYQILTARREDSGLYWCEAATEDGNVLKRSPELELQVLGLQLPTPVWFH

| Binder | Kd [1] [nM] | Kd [2] [nM] | Kd [3] [nM] | Kd [4] [nM] | Kd [5] [nM] | Kd [6] [nM] | Kd [7] [nM] | Kd [8] [nM] |
| --- | --- | --- | --- | --- | --- | --- | --- | --- |
| H240-Kn061/H240-Hl071/L73-k0 (antibody, human IgG1, kappa, Kn061: L234Y/L235Y/G236W/H268D/S298A; Hl071: K326D/A330M/K334E; also called H240-Kn061/H240-HI071/L73-k0) heavy 1: QDQLVQSGAEVKKPGASVKVSCKASGFNIKDTYIQWVRQAPGQGLEWMGRIDPLRKQTKYREKFEGRVTITADTSTNTAYMELSSLRSEDTAVYYCVRSGREFDYWGQGTLVTVSSASTKGPSVFPLAPSSKSTSGGTAALGCLVKDYFPEPVTVSWNSGALTSGVHTFPAVLQSSGLYSLSSVVTVPSSSLGTQTYICNVNHKPSNTKVDKKVEPKSCDKTHTCPPCPAPEYYWGPSVFLFPPKPKDTLMISRTPEVTCVVVDVSDEDPEVKFNWYVDGVEVHNAKTKPREEQYNATYRVVSVLTVLHQDWLNGKEYKCKVSNKALPAPIEKTISKAKGQPREPQVCTLPPSRDELTKNQVSLWCLVKGFYPSDIAVEWESNGQPENNYKTTPPVLDSDGSFFLYSKLTVDKSRWQQGNVFSCSVMHEALHNHYTQKSLSLSP heavy 2: QDQLVQSGAEVKKPGASVKVSCKASGFNIKDTYIQWVRQAPGQGLEWMGRIDPLRKQTKYREKFEGRVTITADTSTNTAYMELSSLRSEDTAVYYCVRSGREFDYWGQGTLVTVSSASTKGPSVFPLAPSSKSTSGGTAALGCLVKDYFPEPVTVSWNSGALTSGVHTFPAVLQSSGLYSLSSVVTVPSSSLGTQTYICNVNHKPSNTKVDKKVEPKSCDKTHTCPPCPAPELLGGPSVFLFPPKPKDTLMISRTPEVTCVVVDVSHEDPEVKFNWYVDGVEVHNAKTKPREEQYNSTYRVVSVLTVLHQDWLNGKEYKCKVSNDALPMPIEETISKAKGQPREPQVYTLPPSRCELTKNQVSLSCAVKGFYPSDIAVEWESNGQPENNYKTTPPVLDSDGSFFLVSKLTVDKSRWQQGNVFSCSVMHEALHNHYTQKSLSLSP light: DIQMTQSPSSLSASVGDRVTITCRASQDIHKYIAWYQQKPGQAPRLLIQYTSTLQPGVPSRFSGSGSGTDYTFTISSLQPEDIATYYCLQYEQLRTFGGGTKVEIKRTVAAPSVFIFPPSDEQLKSGTASVVCLLNNFYPREAKVQWKVDNALQSGNSQESVTEQDSKDSTYSLSSTLTLSKADYEKHKVYACEVTHQGLSSPVTKSFNRGEC | 0.14 | 350 | 280 | 1200 | 5.1 | 1.8 | 5.1 | 1.8 |
| H240-Kn132/H240-Hl071/L73-k0 (antibody, human IgG1, kappa, K326D/A330M/K334E in both H chains (called homodimerized); also called H240-Kn132/H240-HI071/L73-k0) heavy 1: QDQLVQSGAEVKKPGASVKVSCKASGFNIKDTYIQWVRQAPGQGLEWMGRIDPLRKQTKYREKFEGRVTITADTSTNTAYMELSSLRSEDTAVYYCVRSGREFDYWGQGTLVTVSSASTKGPSVFPLAPSSKSTSGGTAALGCLVKDYFPEPVTVSWNSGALTSGVHTFPAVLQSSGLYSLSSVVTVPSSSLGTQTYICNVNHKPSNTKVDKKVEPKSCDKTHTCPPCPAPELLGGPSVFLFPPKPKDTLMISRTPEVTCVVVDVSHEDPEVKFNWYVDGVEVHNAKTKPREEQYNSTYRVVSVLTVLHQDWLNGKEYKCKVSNDALPMPIEETISKAKGQPREPQVCTLPPSRDELTKNQVSLWCLVKGFYPSDIAVEWESNGQPENNYKTTPPVLDSDGSFFLYSKLTVDKSRWQQGNVFSCSVMHEALHNHYTQKSLSLSP heavy 2: QDQLVQSGAEVKKPGASVKVSCKASGFNIKDTYIQWVRQAPGQGLEWMGRIDPLRKQTKYREKFEGRVTITADTSTNTAYMELSSLRSEDTAVYYCVRSGREFDYWGQGTLVTVSSASTKGPSVFPLAPSSKSTSGGTAALGCLVKDYFPEPVTVSWNSGALTSGVHTFPAVLQSSGLYSLSSVVTVPSSSLGTQTYICNVNHKPSNTKVDKKVEPKSCDKTHTCPPCPAPELLGGPSVFLFPPKPKDTLMISRTPEVTCVVVDVSHEDPEVKFNWYVDGVEVHNAKTKPREEQYNSTYRVVSVLTVLHQDWLNGKEYKCKVSNDALPMPIEETISKAKGQPREPQVYTLPPSRCELTKNQVSLSCAVKGFYPSDIAVEWESNGQPENNYKTTPPVLDSDGSFFLVSKLTVDKSRWQQGNVFSCSVMHEALHNHYTQKSLSLSP light: DIQMTQSPSSLSASVGDRVTITCRASQDIHKYIAWYQQKPGQAPRLLIQYTSTLQPGVPSRFSGSGSGTDYTFTISSLQPEDIATYYCLQYEQLRTFGGGTKVEIKRTVAAPSVFIFPPSDEQLKSGTASVVCLLNNFYPREAKVQWKVDNALQSGNSQESVTEQDSKDSTYSLSSTLTLSKADYEKHKVYACEVTHQGLSSPVTKSFNRGEC | – | – | – | – | – | – | 77 | 16 |
| H240-Kn061/H240-Hl134/L73-k0 (antibody, human IgG1, kappa, L234Y/L235Y/G236W/H268D/S298A in both H chains (called homodimerized); also called H240-Kn061/H240-HI134/L73-k0) heavy 1: QDQLVQSGAEVKKPGASVKVSCKASGFNIKDTYIQWVRQAPGQGLEWMGRIDPLRKQTKYREKFEGRVTITADTSTNTAYMELSSLRSEDTAVYYCVRSGREFDYWGQGTLVTVSSASTKGPSVFPLAPSSKSTSGGTAALGCLVKDYFPEPVTVSWNSGALTSGVHTFPAVLQSSGLYSLSSVVTVPSSSLGTQTYICNVNHKPSNTKVDKKVEPKSCDKTHTCPPCPAPEYYWGPSVFLFPPKPKDTLMISRTPEVTCVVVDVSDEDPEVKFNWYVDGVEVHNAKTKPREEQYNATYRVVSVLTVLHQDWLNGKEYKCKVSNKALPAPIEKTISKAKGQPREPQVCTLPPSRDELTKNQVSLWCLVKGFYPSDIAVEWESNGQPENNYKTTPPVLDSDGSFFLYSKLTVDKSRWQQGNVFSCSVMHEALHNHYTQKSLSLSP heavy 2: QDQLVQSGAEVKKPGASVKVSCKASGFNIKDTYIQWVRQAPGQGLEWMGRIDPLRKQTKYREKFEGRVTITADTSTNTAYMELSSLRSEDTAVYYCVRSGREFDYWGQGTLVTVSSASTKGPSVFPLAPSSKSTSGGTAALGCLVKDYFPEPVTVSWNSGALTSGVHTFPAVLQSSGLYSLSSVVTVPSSSLGTQTYICNVNHKPSNTKVDKKVEPKSCDKTHTCPPCPAPEYYWGPSVFLFPPKPKDTLMISRTPEVTCVVVDVSDEDPEVKFNWYVDGVEVHNAKTKPREEQYNATYRVVSVLTVLHQDWLNGKEYKCKVSNKALPAPIEKTISKAKGQPREPQVYTLPPSRCELTKNQVSLSCAVKGFYPSDIAVEWESNGQPENNYKTTPPVLDSDGSFFLVSKLTVDKSRWQQGNVFSCSVMHEALHNHYTQKSLSLSP light: DIQMTQSPSSLSASVGDRVTITCRASQDIHKYIAWYQQKPGQAPRLLIQYTSTLQPGVPSRFSGSGSGTDYTFTISSLQPEDIATYYCLQYEQLRTFGGGTKVEIKRTVAAPSVFIFPPSDEQLKSGTASVVCLLNNFYPREAKVQWKVDNALQSGNSQESVTEQDSKDSTYSLSSTLTLSKADYEKHKVYACEVTHQGLSSPVTKSFNRGEC | – | – | – | – | – | – | 660 | 86 |
